In the supplement of paper PMC10567573:

B1: ZNF263 (parent)
chain: HLTRHQRTHTGEKPYKCTLCGENF
B2: SMG5 (parent)
chain: QEKLQVLMAEGLLPAVKVFLDWLR
B3: SMAD6 (parent)
chain: SGLVRRLWRSRVVPDREEGGSGGG

Variants of: B1
Experiment: protein stability index of a GFP-peptide fusion (GPS, HEK-293T) (PSI 1-6); higher = more stable
Settings: c terminus: a fixed tail appended
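Further: lentivirally expressed fusions sorted by FACS into six bins by GFP to DsRed ratio, PSI derived from sequencing read proportions per bin multiplied by bin number.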

Protein stability index: each site, then its substitutions
H9: R 3.11
Q6: A 2.93
E22: Q 2.38 | K 2.36
G21: F 2.43
E12: Q 2.74
H5: L 2.09 | W 2.31
H1: P 4.14 | W 2.22
F24: Y 2.9
Y15: C 4.52 | P 3.1
T3: A 2.88 | R 3.77
K13: L 2.03 | Q 3.6 | D 2.82
R4: L 3.22 | Q 3.32 | H 3.53
T8: N 3.22
N23: W 2.57
C17: F 2.44
L19: W 2.75
L2: P 3.57

Variants of: B2
Experiment: as above
Settings: c terminus: a fixed tail appended

Protein stability index, by site and new letter:
M8: S 1.31 | H 4.3 | D 1.8 | R 3.01 | V 3.7 | A 2.54 | W 2.3 | N 2.57 | Q 2.85 | K 2.8 | F 1.36 | E 2.44 | G 2.85 | T 3.02 | Y 3.06 | I 1.9 | C 2.26 | L 2.48
E2: D 2.26 | T 2.68 | M 2.83 | S 3.11 | P 2.96 | N 2.86 | F 2.2 | A 2.31 | L 1.44 | Q 2.92 | H 3.82 | Y 2.15 | R 2.37 | K 2.38 | I 2.23 | W 1.56 | C 2.47 | V 2.56 | G 1.6
K3: T 1.48 | Q 2.66 | E 2.25 | R 3.73 | V 2.02 | I 1.45 | F 1.53 | S 1.79 | N 1.91 | A 4.03 | H 1.96 | M 1.5 | D 2.02 | Y 2.15 | W 1.48 | G 1.91 | C 2.03 | L 1.78
L7: D 1.94 | E 2 | A 2.4 | K 2.49 | M 1.64 | R 4.07 | F 1.8 | V 2.07 | W 3.24 | P 2.26 | C 1.54 | N 2.47 | S 1.67 | Y 1.86
A9: N 3.04 | D 1.76 | F 1.78 | H 2.41 | P 2.41 | K 2.21 | M 1.81 | C 2.63 | L 3.66 | E 2.95 | I 1.82
L4: E 1.12 | H 2.2 | S 2.75 | I 1.91 | W 2.18 | D 3.26 | G 3.1 | T 3.18 | M 2.32 | Y 4.02 | F 2.71 | V 2.58 | C 3.13 | R 2.69
Q1: T 1.96 | W 1.95 | H 1.45 | P 2.09 | F 2.89 | E 3.01 | N 1.62 | G 2.22 | L 3.5 | M 2.37 | R 1.57 | K 4.12 | Y 2.81 | A 2.23 | I 2.95 | D 2.79 | V 2.18 | C 1.53 | S 2.88
Q5: V 2.31 | D 3.13 | P 2.22 | A 2 | K 2.45 | F 1.46 | M 2.19 | L 2.5 | T 1.47 | G 1.88 | E 4.03 | C 2.11 | S 2.8 | W 1.45 | N 1.67 | I 2.86 | H 1.58 | Y 1.8
V6: R 1.99 | E 2.18 | Y 3.07 | D 1.96 | I 1.5 | M 1.48 | P 2 | K 2.16 | C 2.14 | Q 2.02 | A 1.82 | H 1.55 | W 2.51 | G 2.42 | N 3.16

Variants of: B3
Experiment: as above
Settings: c terminus: a fixed tail appended

Protein stability index of substitutions, site by site:
L7: Q 4.4 | Y 3.82 | E 3.82 | H 3.55 | S 4 | I 4.14
W8: K 4.64 | N 5.26 | Q 5 | L 4.22 | S 5.1
E18: D 3.82 | A 2.9 | P 3.46 | Y 2.44 | F 2.68 | V 3.85 | N 2.42 | I 4.17 | C 2.94
E17: R 2.93 | S 4.07 | D 4.12 | A 3.47 | T 3.31 | Y 1.19 | G 3.86 | V 3.71 | C 4.26 | K 4.14
V13: W 3.37 | F 3.32 | L 3.99 | D 4.88 | K 4.13
G20: N 3.11 | V 2.44 | W 1.99 | F 2.82 | L 2.74 | I 3.06 | R 4.04 | C 3.04 | A 4 | Q 3.96
P14: N 3.77 | D 2.83 | Y 3.02 | L 3.18 | K 4.3
V4: E 4.63 | G 3.41 | K 4.45
G23: D 5.01 | N 3.01 | P 3.89 | F 3.13 | H 3.7 | E 3.9 | V 3.78 | M 3.25 | S 4.47
R5: M 3.3 | A 3.76 | S 3.27 | C 2.46 | H 4.21 | L 1.97 | I 2.4 | Q 3.72
R16: L 3.34 | E 4.32 | Q 3.67 | S 4.7 | I 3.76 | N 4.37 | M 3.4 | W 3.25
R11: T 4.68 | G 4.98 | I 2.63 | W 2.22 | K 4.15
G22: R 4.48 | A 3.84 | I 3.87 | F 2.98 | C 3.04 | E 4.04
G19: K 4.06 | W 2.79 | M 3.35 | P 4.07 | A 4.28
G2: K 3.6 | E 2.35 | S 4.17 | V 3.03 | N 4.17 | D 2.93 | L 3.51 | M 3.19 | P 4.79 | W 2.29 | F 2.93 | H 4.14 | A 2.15
L3: T 3.54 | W 4.17 | N 4.73 | S 4.38 | M 4.06 | Q 3.88
V12: Y 3.1 | N 4.22 | C 2.94 | D 4.76 | M 4.06 | P 3.67 | I 4.07 | F 3.69
R6: H 4 | M 2.93 | S 3.29 | A 3.27 | C 3.46
S10: A 3.76 | W 2.6 | N 3.89 | H 2.24 | F 2.4
S1: C 2.09 | Q 5.24 | W 2.61 | I 2.92 | H 3.81 | M 2.45
G24: C 4.91 | H 2.83 | E 4 | Q 3.59 | T 4.01 | K 3.78 | F 2.44
R9: N 3.96 | H 3.69 | T 2.82 | G 3.27 | P 4.85
D15: I 2.75 | H 3.55 | K 3.35 | N 3.96 | P 3.62 | M 3.01 | T 4.33 | E 4.31
S21: D 4.54 | Y 3.09 | W 2.9 | V 3.37 | E 3.53
